Measurements reported in patent US10421803 (dated 2019).

Biological target: HIV-1 YU2 gp120 (HIV-1, UniProt P35961)
Assay: SPR, bivalent

Sequence of HIV-1 YU2 gp120 (P35961 32-671): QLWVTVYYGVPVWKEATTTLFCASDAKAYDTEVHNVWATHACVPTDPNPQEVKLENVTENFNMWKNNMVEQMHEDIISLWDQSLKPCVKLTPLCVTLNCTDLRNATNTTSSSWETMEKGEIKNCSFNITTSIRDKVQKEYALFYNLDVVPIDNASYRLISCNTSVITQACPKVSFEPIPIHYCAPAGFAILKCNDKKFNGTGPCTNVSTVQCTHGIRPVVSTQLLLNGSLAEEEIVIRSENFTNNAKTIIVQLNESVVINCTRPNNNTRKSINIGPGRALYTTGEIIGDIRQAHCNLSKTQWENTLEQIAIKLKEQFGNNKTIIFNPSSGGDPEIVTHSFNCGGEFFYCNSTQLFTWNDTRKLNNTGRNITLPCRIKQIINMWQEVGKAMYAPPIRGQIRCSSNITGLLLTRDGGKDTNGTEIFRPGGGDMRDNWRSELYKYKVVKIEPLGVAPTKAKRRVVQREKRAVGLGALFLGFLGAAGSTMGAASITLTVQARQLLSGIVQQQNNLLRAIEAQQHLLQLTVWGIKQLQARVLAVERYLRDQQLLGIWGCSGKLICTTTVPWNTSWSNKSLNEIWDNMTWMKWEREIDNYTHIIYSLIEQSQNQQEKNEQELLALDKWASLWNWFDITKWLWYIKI

B1: 8ANC195 IgG (antibody, V domains shown)
VH: QIHLVQSGTEVKKPGSSVTVSCKAYGVNTFGLYAVNWVRQAPGQSLEYIGQIWRWKSSASHHFRGRVLISAVDLTGSSPPISSLEIKNLTSDDTAVYFCTTTSTYDKWSGLHHDGVMAFSSWGQGTLISVSA
VL: DIQMTQSPSTLSASIGDTVRISCRASQSITGNWVAWYQQRPGKAPRLLIYRGAALLGGVPSRFSGSAAGTDFTLTIGNLQAEDFGTFYCQQYDTYPGTFGQGTKVEV
For B1, the Kd was 82 nM.
